# Test results taken from article PMC12678776.
# What was measured:
# [1] = test system: ecHOP1-wHTH (SUMO-wHTH) (Ectocarpus); assay: EMSA; details: apparent Kd, Hill h = 1.7; 50 nM DNA; EMSA: 50 nM nucleic acid, protein 25 nM-2 uM, ~30 min at 4 C, 0.8% agarose in 0.2% TBE (so in the source) at 4 C, SYBR Gold; binding buffer, salt and pH not stated
# [2] = target: 2xStrepII-ecHOP1-HORMA (ecHOP1 residues 1-274) (Ectocarpus siliculosus); assay: ITC; 350 µM MBP-tagged CM titrated into 25 µM ecHOP1-HORMA in the cell; 50 mM HEPES pH 7.5, 150 mM NaCl, 1 mM EDTA; 25 °C; MicroCal PEAQ-ITC; triplicate
Kd [2] [µM],Substance,Kd [1] [µM]
,167 bp Widom DNA,0.25
60.3,His6-MBP-CM-R-A (ecRED1 closure motif A) (domain or fragment),
7.2,"MBP-CM-H1-A (ecHOP1 isoform 1 closure motif A, residues 567-600) (domain or fragment)",
10.6,"MBP-CM-H1-B (ecHOP1 isoform 1 closure motif B, residues 665-694) (domain or fragment)",
